US20210171654A1 (FORTY SEVEN, published 2021)
Values joined by “and” are separate entries in the source; they are usually repeats but may differ in a detail not shown here. Equal values may be shown once.

What was measured:
[1] = target: T1, human SIRP-alpha V1/V5 (heterozygous) on monocytes and macrophages of V1/V5 donors (human); test: flow cytometry on monocytes; blocking of AF488-conjugated human CD47-Fc binding
T1 construct: Not a complex: the two allelic forms carried together by the cells of heterozygous donors
T1 sequence (P78324 whole entry): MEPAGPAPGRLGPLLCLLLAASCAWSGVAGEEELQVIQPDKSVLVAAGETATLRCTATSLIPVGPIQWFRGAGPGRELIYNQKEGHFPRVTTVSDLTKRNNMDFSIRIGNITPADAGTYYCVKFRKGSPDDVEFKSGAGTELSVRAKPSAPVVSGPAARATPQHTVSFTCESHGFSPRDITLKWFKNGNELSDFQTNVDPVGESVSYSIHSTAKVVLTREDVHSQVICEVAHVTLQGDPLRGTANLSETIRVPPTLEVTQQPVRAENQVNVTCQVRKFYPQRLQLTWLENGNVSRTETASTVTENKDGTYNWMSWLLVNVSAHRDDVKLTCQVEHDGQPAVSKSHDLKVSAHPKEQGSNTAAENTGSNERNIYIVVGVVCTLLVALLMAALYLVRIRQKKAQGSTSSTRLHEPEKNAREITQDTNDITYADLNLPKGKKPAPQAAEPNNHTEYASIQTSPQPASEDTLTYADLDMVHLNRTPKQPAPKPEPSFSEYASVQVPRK
Method: (§1) Blocking human CD47 binding on monocytes isolated from human donors. Human peripheral blood mononuclear cells (PBMCs) were isolated from human blood using Ficoll. 5×10⁵ cells were incubated with 1 ug/ml of AF488-conjugated human CD47-Fc fusion protein in the absence or presence of increasing concentrations of hHu1H9-G1. Binding of CD47 on the cells was measured and analyzed by flow cytometry.

[2] = target: T2, human SIRP-alpha variant 2 (V2) on monocytes and macrophages of V2 homozygous donors (human, UniProt Q5TFQ8 30-145); test: as above
T2 construct: the whole native protein stood on the cells; The definitions name GenBank CAA71403.1 for the V2 form (residues 30-504 mature); also called SIRPa V2
T2 sequence (Q5TFQ8 other isoform, or with tags, fused parts or gaps mutant): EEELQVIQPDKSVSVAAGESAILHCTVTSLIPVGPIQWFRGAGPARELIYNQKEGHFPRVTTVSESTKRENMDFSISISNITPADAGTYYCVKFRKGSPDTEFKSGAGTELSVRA
Method: as §1

[3] = target: T3, human SIRP-alpha variant 1 (V1) on monocytes and macrophages of V1 homozygous donors (human, UniProt P78324 31-146); test: as above
T3 construct: the whole native protein stood on the cells; also called SIRPa V1
T3 sequence (P78324 31-146, change not shown): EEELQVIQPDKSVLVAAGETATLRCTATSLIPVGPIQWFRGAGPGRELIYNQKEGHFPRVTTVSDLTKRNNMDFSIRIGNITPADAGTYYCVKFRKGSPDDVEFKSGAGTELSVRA
Method: as §1

[4] = target: T4, human SIRPG-His fusion protein (human, UniProt Q9P1W8-2 29-327, limits assumed); test: ELISA, binding to human SIRPG-His fusion protein
T4 construct: also called SIRP gamma; not shown: His tag
T4 sequence (Q9P1W8 62-360 limits assumed): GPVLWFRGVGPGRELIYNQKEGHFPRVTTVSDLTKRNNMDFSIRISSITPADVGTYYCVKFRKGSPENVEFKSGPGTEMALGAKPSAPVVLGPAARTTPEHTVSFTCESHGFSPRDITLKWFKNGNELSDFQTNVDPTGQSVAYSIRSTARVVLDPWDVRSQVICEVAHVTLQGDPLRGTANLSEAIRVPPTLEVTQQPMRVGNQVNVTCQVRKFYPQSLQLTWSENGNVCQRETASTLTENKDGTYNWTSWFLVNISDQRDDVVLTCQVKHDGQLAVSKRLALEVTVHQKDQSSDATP

B1: Humanized 1H9 (antibody, human IgG1, kappa, N297A, V domains shown)
VH: QVQLVQSGAEVKKPGASVKVSCKASGYTFTSYWITWVKQAPGQGLEWIGDIYPGSGSTNHIEKFKSKATLTVDTSISTAYMELSRLRSDDTAVYYCATGYGSSYGYFDYWGQGTLVTVSS
VL: DIQMTQSPSSLSASVGDRVTITCRASENIYSYLAWYQQKPGKAPKLLIYTAKTLAEGVPSRFSGSGSGTDFTLTISSLQPEDFATYYCQHQYGPPFTFGQGTKLEIKR
notes: also called Hu1H9-G1; humanized 1H9-G1
[1]
  IC50 (read off the curve): ~3 µg/mL
[2]
  IC50 (read off the curve): ~20 µg/mL
[3]
  IC50 (read off the curve): ~8 µg/mL and ~4 µg/mL

B2: 1H9 (parental mouse anti-human SIRPa monoclonal antibody) (antibody, V domains shown)
VH: QVQLQQPGAERVKPGASVKMSCKASGYTFTSYWITWVKQRPGQGLEWIGDIYPGSGSTNHIEKFKSKATLTVDTSSNTAYMQLSRLTSEDSAVYYCATGYGSSYGYFDYWGQGTTLTVSS
VL: DIQMTQSPASLSASVGETVTITCRASENIYSYLAWYQQKQGKSPQLLVYTAKTLAEGVPSRFSGSGSGTQFSLKINSLQPEDFGNYYCQHQYGPPFTFGSGTRLVIK
notes: Hybridoma-derived mouse antibody; also called mouse 1H9
[4]
  binding result: no binding (tested: about 3000 ng/mL)

B3: 3C2 (parental mouse anti-human SIRPa monoclonal antibody) (antibody, V domains shown)
VH: QVQLQQPGAELVRPGSSVKLSCKASGYTFTSYWMHWVKQRPIQGLEWIGNIDPSDSDTHYNQKFKDKATLTVDKSSSTAYMQLSSLTSEDSAVYYCARGYSKYYAMDYWGQGTSVTVSS
VL: DVLMTQTPLSLSVSLGDQASISCRSSQSIVHSYGNTYLEWYLQKPGQSPKLLIYKVSNRFSGVPDRFSGSGSGTDFTLKISRVEAEDLGVYYCFQGSHVPYTFGGGTKLEIK
notes: Hybridoma-derived mouse antibody; also called mouse 3C2
[4]
  binding result: no binding (tested: about 3000 ng/mL)
